Three molecules from paper PMC4990646, “DELLA proteins are common components of symbiotic rhizobial and mycorrhizal signalling pathways” (Nature Communications, 2016) can be followed below.

The chains are these.
B1: HIS-MtDELLA2 (natural protein, M. truncatula, UniProt A0A396GMX6 1-533, looked up)
chain: MKREHKLEHEDMSSGSGKSGVCWEDDGGGMDELLAVVGYKVKSSDMAEVAQKLEQLEQAMMGNNFHDHDESTIAQHLSNDTVHYNPSDISNWLQTMLSNFDPQPNNPSVNSDDNDLNAIPGKAIYAADEFTSRKRVKRNESVTVTTESTTTRPIMVVETQEKGIRLVHSLMACAEAVEQNNLKMAEALVKQIGYLAVSQEGAMRKVATYFAEGLARRIYGVFPQHSVSDSLQIHFYETCPNLKFAHFTANQAILEAFQGKSSVHVIDFSINQGMQWPALMQALALRPGGPPAFRLTGIGPPASDNSDHLQQVGWRLAQFAQTIHVQFEYRGFVANSLADLDASMLELRSPETESVAVNSVFELHKLNARPGALEKVFSVIRQIRPEIVTVVEQEANHNGPAFLDRFTESLHYYSTLFDSLEGSSVEPQDKAMSEVYLGKQICNVVACEGTDRVERHETLNQWRNRFNSAGFSPVHLGSNAFKQASMLLALFAGGDGYKVEENDGCLMLGWHTRPLIATSAWKLAAANSVVVSH
notes: MtDELLA2 of Medicago truncatula; the trigger factor is inferred from the vector pCold-TF; also called HIS-tagged MtDELLA2; source: E. coli, purified (Ni-NTA Agarose); not shown: His tag, N-terminal, kept
B2: HIS-MtDELLA1 (natural protein, M. truncatula, UniProt A0A396IUP1 1-594, looked up)
chain: MKREHQESFGGGVISNNNKTNTNHLNSSKNINFGECSSMQNTNTKQNMWREEKETNGGGMDELLAALGYKVRSSDMADVAQKLEQLEMVMGSAQEEGINHLSSDTVHYDPTDLYSWVQTMLTELNPDSSQINDPLASLGSSSEILNNTFNDDSEYDLSAIPGMAAYPPQEENTAAKRMKTWSEPESEPAVVMSPPPAVENTRPVVLVDTQETGVRLVHTLMACAEAIQQKNLKLAEALVKHISLLASLQTGAMRKVASYFAQALARRIYGNPEETIDSSFSEILHMHFYESSPYLKFAHFTANQAILEAFAGAGRVHVIDFGLKQGMQWPALMQALALRPGGPPTFRLTGIGPPQADNTDALQQVGWKLAQLAQTIGVQFEFRGFVCNSIADLDPNMLEIRPGEAVAVNSVFELHTMLARPGSVEKVLNTVKKINPKIVTIVEQEANHNGPVFVDRFTEALHYYSSLFDSLEGSNSSSNNSNSNSTGLGSPSQDLLMSEIYLGKQICNVVAYEGVDRVERHETLTQWRSRMGSAGFEPVHLGSNAFKQASTLLALFAGGDGYRVEENNGCLMLGWHTRSLIATSAWKLPQNESK
notes: MtDELLA1 of Medicago truncatula; the trigger factor is inferred from the vector pCold-TF; also called HIS-tagged MtDELLA1; source: E. coli, purified (Ni-NTA Agarose); not shown: His tag, N-terminal, kept
B3: MBP-IPD3 (natural protein, M. truncatula, UniProt A7TUE1 1-513, looked up)
chain: MEGRGFSGLYKNSSEELFLKTVMESPIGMPVPTMEMLGFKTVSQSFRTDSEELFKRWLTNDQEGYNSSSMGLNSRLSKRISTEIANMSNQQHIGVASEGRNNDKSCLQNNFLANDVSSDFNFPIRDPVDRELQSSNLFLAKAWFITDQRMTRSRSSELRRRYTEMQNSQAPQGLDSMFMVPEHDTNTIKEELANFNGFDYLSMCELPSQKGTFMSPSNSSSSTFNTHQLVDVDKVSSCVSMLKGTLQRKKLECQVEKEAAEDGLNEIFCIREPLFQSAFNEEESWNQQKLVNVQGDFTDQVNDPGVMQTLEGTTNFVLDGFANQTNQIQGRTASGEPSQSESSAAAPVISSGLDACEGPSNSNQTLGDSSWKQVGESTQNKVRGVREQIMDNLKDDRKRKSLERYGSVTSAVSDGKMDNTKKRRVERSRKMAEAKERNLTPTIPSDMQAILKRCENLEKEVRSLKLNLSFMNRKDSEQTKQIEDLQKQNEDLADEKERLLEEIERILSETGKI
notes: IPD3 (CYCLOPS) of Medicago truncatula; also called MBP-IPD3 fusion protein; source: E. coli, purified (amylose resin), held on the resin; not shown: MBP, N-terminal, kept

Holding throughout (test): pull-down; MBP fusion on amylose resin captures purified HIS-tagged MtDELLA; western blot with anti-MBP and anti-HIS
Holding throughout (settings): both partners purified

In test [1] the target is T1, MBP-NSP2 (M. truncatula, UniProt Q5NE24 1-508).
T1 construct: NSP2 of Medicago truncatula; source: E. coli, purified (amylose resin), held on the resin; not shown: MBP, N-terminal, kept
T1 sequence (Q5NE24 whole entry, the tested form may be a part): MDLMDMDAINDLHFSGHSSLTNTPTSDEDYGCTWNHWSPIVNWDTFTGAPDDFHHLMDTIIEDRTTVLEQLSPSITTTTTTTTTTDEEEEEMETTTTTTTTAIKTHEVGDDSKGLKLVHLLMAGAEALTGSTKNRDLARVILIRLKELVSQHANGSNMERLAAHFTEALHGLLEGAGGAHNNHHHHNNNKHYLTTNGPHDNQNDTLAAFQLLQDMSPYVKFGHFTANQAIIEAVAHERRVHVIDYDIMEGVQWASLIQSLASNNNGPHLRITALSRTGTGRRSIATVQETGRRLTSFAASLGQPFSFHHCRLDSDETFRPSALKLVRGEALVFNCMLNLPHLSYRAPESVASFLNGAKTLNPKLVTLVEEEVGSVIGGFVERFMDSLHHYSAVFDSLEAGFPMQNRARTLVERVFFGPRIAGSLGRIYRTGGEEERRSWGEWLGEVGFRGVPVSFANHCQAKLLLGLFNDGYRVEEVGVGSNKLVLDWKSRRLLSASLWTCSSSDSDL

Test [2] addresses B2.
In test [3] the target is B1.

In the case of B1, in test [1], the binding result was “binds”. On the same count and under the same terms, under B2 stands “binds”. Consider B3, for which the binding result in test [2] and in test [3] was “binds” each time.
